This series concerns the target MBD4 (methyl-CpG binding domain protein 4) (mouse, UniProt Q9Z2D7 1-554). The experiment in a line: EMSA.

Sequence of MBD4 (methyl-CpG binding domain protein 4) (Q9Z2D7 whole entry, the tested form may be a part): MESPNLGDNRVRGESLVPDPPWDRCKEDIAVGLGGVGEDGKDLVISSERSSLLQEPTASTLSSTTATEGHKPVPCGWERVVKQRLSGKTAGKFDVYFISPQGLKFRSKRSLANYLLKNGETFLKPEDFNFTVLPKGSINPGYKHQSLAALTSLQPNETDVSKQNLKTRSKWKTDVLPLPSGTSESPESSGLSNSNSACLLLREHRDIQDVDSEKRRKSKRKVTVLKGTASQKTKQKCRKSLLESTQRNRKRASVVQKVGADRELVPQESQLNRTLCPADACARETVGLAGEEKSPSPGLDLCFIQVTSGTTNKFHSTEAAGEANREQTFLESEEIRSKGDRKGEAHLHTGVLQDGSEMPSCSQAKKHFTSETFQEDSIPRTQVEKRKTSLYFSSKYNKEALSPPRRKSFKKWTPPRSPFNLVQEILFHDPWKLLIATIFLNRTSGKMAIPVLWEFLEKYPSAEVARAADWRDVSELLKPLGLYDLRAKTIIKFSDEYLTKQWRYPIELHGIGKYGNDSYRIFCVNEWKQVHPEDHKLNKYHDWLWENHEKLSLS

B1: m5CpGGFP ssODN alone (ssDNA)
DNA: GGTCGGGGTAGCGGCTGAATCGCTGCACGCCGTAGGTCACGCG
modifications: m5C at position 21 (m5CpG); 3' cgcg phosphorothioate
B1: the binding result is “no binding”.
